Key:
[1] = molecular target: AusM^N127A (Aspergillus usamii E001 (parent AuXyn11A))
[2] = molecular target: thermostable GHF11 xylanase AusM (Aspergillus usamii E001 (parent AuXyn11A))

residual xylanase activity at a molar ratio of SyXIP-I/xylanase of 100:1 (% of initial activity) [1]: 62.7
molar excess of SyXIP-I over AusM needed for almost complete inhibition of xylanase activity (mol SyXIP-I per mol AusM) [2]: > 80
molar ratio of SyXIP-I to AusM at which the inhibition rate of xylanase activity reached 50% (birchwood xylan, pH 4.6, 50 °C) (mol SyXIP-I per mol AusM) [2]: 7
B1: xylanase inhibitor protein SyXIP-I (natural protein)
chain: AGGKTGQVTVFWGRNKAEGSLREACDSGMYTMVTMSFLDVFGANGKYHLDLSGHDLSSVGADIKHCQSKGVPVSLSIGGYGTGYSLPSNRSALDLFDHLWNSYFGGSKPSVPRPFGDAWLDGVDLFLEHGTPADRYDVLALELAKHNIRGGPGKPLHLTATVRCGYPPAAHVGRALATGIFERVHVRTYESDKWCNQNLGWEGSWDKWTAAYPATRFYVGLTADDKSHQWVHPKNVYYGVAPVAQKKDNYGGIMLWDRYFDKQTNYSSLIKYYA

Reference: publication PMC10572589
